Reference: paper PMC10491789

Molecular target: GPI-T (wild-type human GPI transamidase complex, purified by the same strategy as GPI-T^sub) (human) (UniProt O43292)
Test: tandem affinity co-purification; co-expressed in HEK293T-derived knockout cells; solubilised with 1% LMNG/0.1% CHS, exchanged to digitonin; Strep-Tactin beads (Strep tag on PIGU) then Ni-NTA (His tag on (pro)ULBP2); 4 °C; 150 mM NaCl, Tris-HCl pH 8.0

Work on “ULBP2 (His-tagged GPI-anchored product, co-expressed with wild-type GPI-T) (from UniProt Q9BZM5 27-217) (natural protein)” yielded a yield during the second affinity chromatography step of 4%.
